# Measured values from the supplement of paper PMC10724198.
# ± gives the standard deviation of the averaged measurements.
# Tests used:
# Saccharomyces cerevisiae [1] = assay: protein stability index of tFT-peptide fusion (C-terminal peptide) (PSI (0-1 scale)); higher = more stable (slower turnover)
# Procedure: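 MPS profiling in S. cerevisiae of the tFT-X12 degron library: putative degron peptides plus stable controls, 12 aa, fused to the C-terminus of a sfGFP-mCherry timer. Cells are FACS-sorted into 8 mCherry/sfGFP bins and deep-sequenced. PSI runs from 0 (unstable) to 1 (stable). Backgrounds are wild type, das1Δ and doa10Δ at 30 °C, and wild type, das1Δ, cdc34-1 and cdc53-1 at 37 °C; 2-3 technical replicates each.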
# Saccharomyces cerevisiae [2] = assay: as above; conditions: genetic background: wild type; temperature: 30 C
# [3] = genetic background: cdc34-1, temperature: 37 C
# [4] = genetic background: cdc53-1, temperature: 37 C
# [5] = genetic background: das1 deletion, temperature: 30 C
# [6] = genetic background: das1 deletion, temperature: 37 C
# [7] = genetic background: doa10 deletion, temperature: 30 C
# [8] = genetic background: wild type, temperature: 30 C
# [9] = genetic background: wild type, temperature: 37 C
# 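Also: PSI is a weighted mean of sequencing reads over stability bins, variants kept only with over 10 reads, mCherry proximal and sfGFP distal, peptide attached via GGGS linker.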
Sequence,protein stability index (Saccharomyces cerevisiae [1]; [3]),protein stability index (Saccharomyces cerevisiae [1]; [4]),protein stability index (Saccharomyces cerevisiae [1]; [5]),protein stability index (Saccharomyces cerevisiae [1]; [6]),protein stability index (Saccharomyces cerevisiae [1]; [7]),protein stability index (Saccharomyces cerevisiae [1]; [8]),protein stability index (Saccharomyces cerevisiae [1]; [9]),protein stability index (Saccharomyces cerevisiae [2])
VGVVGVRVLVVV,0.0407 ± 0.0012,0.1 ± 0.018,0.166 ± 0.032,0.19025 ± 0.00017,0.142 ± 0.01,0.154 ± 0.024,0.17315 ± 8e-05,0.2026 ± 0.0015
VIGSFVRVFGIM,0.698 ± 0.024,0.751 ± 0.018,0.617 ± 0.017,0.728 ± 0.026,0.489 ± 0.041,0.506 ± 0.0097,0.6657 ± 0.00035,0.512 ± 0.12
VILMFELFGVRI,0.324 ± 0.04,0.457 ± 0.019,0.355 ± 0.058,0.4304 ± 0.0029,0.327 ± 0.019,0.313 ± 0.051,0.422 ± 0.054,0.331 ± 0.029
VLCHLVLYVGDK,0.454 ± 0.013,0.569 ± 0.022,0.383 ± 0.035,0.588 ± 0.013,0.3413 ± 0.0027,0.397 ± 0.052,0.534 ± 0.029,0.4359 ± 0.0017
VLDLLRHGFLWQ,0.686 ± 0.051,0.736 ± 0.0032,0.706 ± 0.024,0.727 ± 0.011,0.689 ± 0.017,0.6984 ± 0.0056,0.7119 ± 0.0068,0.761 ± 0.071
VLFFVLGVLVCL,0.319 ± 0.019,0.429 ± 0.019,0.348 ± 0.027,0.471 ± 0.01,0.319 ± 0.021,0.338 ± 0.019,0.441 ± 0.026,0.397 ± 0.043
VLFIKKTLMRIQ,0.558 ± 0.008,0.685 ± 0.0057,0.621 ± 0.0064,0.66 ± 0.015,0.268 ± 0.025,0.331 ± 0.027,0.537 ± 0.045,0.396 ± 0.0084
VLFVLFASWFPR,0.453 ± 0.023,0.4772 ± 0.002,0.375 ± 0.027,0.5458 ± 0.0053,0.3679 ± 0.0025,0.361 ± 0.024,0.529 ± 0.047,0.487 ± 0.0066
VLFVVLVASGLG,0.215 ± 0.015,0.312 ± 0.007,0.204 ± 0.032,0.4008 ± 0.00043,0.163 ± 0.01,0.206 ± 0.026,0.4012 ± 0.0037,0.299 ± 0.023
VLPQSVWILVRV,0.0621 ± 0.016,0.0737 ± 0.0062,0.172 ± 0.024,0.236 ± 0.012,0.144 ± 0.021,0.155 ± 0.032,0.1936 ± 0.0014,0.2609 ± 0.0026
VLSFWAFLFLLF,0.428 ± 0.012,0.412 ± 0.026,0.398 ± 0.023,0.488 ± 0.015,0.31 ± 0.013,0.282 ± 0.0089,0.3785 ± 0.0022,0.335 ± 0.011
VLSWRAWGESGV,0.387 ± 0.02,0.426 ± 0.015,0.466 ± 0.032,0.392 ± 0.014,0.493 ± 0.03,0.468 ± 0.011,0.382 ± 0.007,0.445 ± 0.024
VMFWRGVWLSFC,0.313 ± 0.036,0.361 ± 0.049,0.45 ± 0.019,0.572 ± 0.03,0.23 ± 0.0033,0.197 ± 0.016,0.335 ± 0.011,0.268 ± 0.03
VNTRIVVRMRHL,0.638 ± 0.056,0.701 ± 0.015,0.64 ± 0.014,0.704 ± 0.02,0.339 ± 0.0049,0.348 ± 0.013,0.529 ± 0.0082,0.433 ± 0.014
VNWGFLVLLFQL,0.446 ± 0.017,0.513 ± 0.025,0.39 ± 0.035,0.561 ± 0.018,0.219 ± 0.029,0.25 ± 0.021,0.4111 ± 0.00064,0.324 ± 0.011
VPLHPPPTVPYI,0.674 ± 0.063,0.728 ± 0.014,0.66 ± 0.015,0.7244 ± 0.0069,0.679 ± 0.011,0.675 ± 0.034,0.7038 ± 0.0066,0.704 ± 0.03
VPLVQRARLRLF,0.639 ± 0.059,0.715 ± 0.02,0.607 ± 0.027,0.732 ± 0.026,0.109 ± 0.015,0.114 ± 0.012,0.206 ± 0.028,0.146 ± 0.025
VPRLFSVIVVPV,0.517 ± 0.04,0.5325 ± 0.0033,0.39 ± 0.033,0.5519 ± 0.0049,0.359 ± 0.012,0.389 ± 0.03,0.536 ± 0.018,0.488 ± 0.052
VRFRLLNVLASA,0.528 ± 0.0073,0.518 ± 0.048,0.395 ± 0.026,0.5582 ± 0.0043,0.34 ± 0.015,0.389 ± 0.021,0.5305 ± 0.0031,0.468 ± 0.056
VRGSFRRCLSIA,0.596 ± 0.011,0.713 ± 0.021,0.623 ± 0.015,0.719 ± 0.012,0.118 ± 0.027,0.142 ± 0.017,0.325 ± 0.011,0.1981 ± 0.0011
VRRSVGGWSKVG,0.638 ± 0.011,0.724 ± 0.023,0.636 ± 0.029,0.7327 ± 0.0047,0.158 ± 0.023,0.194 ± 0.037,0.505 ± 0.013,0.339 ± 0.022
VRSTFVLGRWFA,0.57 ± 0.0089,0.711 ± 0.0072,0.653 ± 0.029,0.7495 ± 0.0021,0.133 ± 0.0064,0.159 ± 0.018,0.312 ± 0.083,0.228 ± 0.062
VSFHFLLLVPCC,0.0285 ± 0.0095,0.0251 ± 0.0019,0.0609 ± 0.027,0.0732 ± 0.023,0.044 ± 0.0035,0.0565 ± 0.02,0.0701 ± 0.0096,0.105 ± 0.082
VSFHLGVIFALS,0.547 ± 0.018,0.5268 ± 0.0037,0.401 ± 0.026,0.536 ± 0.0072,0.268 ± 0.0063,0.343 ± 0.021,0.46 ± 0.013,0.39 ± 0.0086
VSFLLLSYLCSF,0.341 ± 0.0084,0.389 ± 0.01,0.279 ± 0.031,0.46 ± 0.011,0.172 ± 0.0023,0.187 ± 0.019,0.322 ± 0.0035,0.266 ± 0.012
VSWDMLYFWFIQ,0.664 ± 0.089,0.693 ± 0.041,0.603 ± 0.059,0.764 ± 0.033,0.307 ± 0.017,0.304 ± 0.028,0.554 ± 0.016,0.416 ± 0.002
VSYAVIVLVFKG,0.211 ± 0.056,0.317 ± 0.051,0.234 ± 0.026,0.463 ± 0.018,0.2 ± 0.022,0.22 ± 0.023,0.339 ± 0.04,0.329 ± 0.037
VTVWLISRVTGL,0.579 ± 0.034,0.67938 ± 0.00055,0.496 ± 0.017,0.647 ± 0.017,0.286 ± 0.035,0.314 ± 0.01,0.549 ± 0.018,0.435 ± 0.0085
VVCFGCLAFFLG,0.579 ± 0.0076,0.613 ± 0.011,0.461 ± 0.021,0.624 ± 0.044,0.412 ± 0.043,0.409 ± 0.028,0.533 ± 0.027,0.497 ± 0.0057
VVFILLFFVFCR,0.253 ± 0.027,0.271 ± 0.016,0.24 ± 0.031,0.371 ± 0.0061,0.296 ± 0.013,0.25 ± 0.021,0.314 ± 0.022,0.294 ± 0.019
